Among the data in article PMC4160250 are mean relative peak intensity of the UBD domain of DC-UbP, mean relative peak intensity of the UbL domain of DC-UbP and Kd values, retold here.

Test [1] deals with His-tagged DC-UbP (human) (UniProt Q8WUN7). The experiment in a line: NMR titration; 15N-labelled DC-UbP (100 uM) titrated stepwise with unlabelled USP5, UbE1, FH or SCCH; 1H-15N HSQC, 20 mM phosphate, 50 mM NaCl, pH 6.5, 298 K.
The target in test [2] is UbP_C (C-terminal part of DC-UbP, residues 129-234), His-tagged (human) (UniProt Q8WUN7). Put plainly: NMR titration; 15N-labelled UbP_C (200 uM; 150 uM for the affinity) titrated with USP5_UBA12 or USP5_ZnF; 1H-15N HSQC, 20 mM phosphate, 50 mM NaCl, pH 6.5, 298 K.
Sequence of UbP_C (C-terminal part of DC-UbP, residues 129-234), His-tagged (human) (Q8WUN7 129-234): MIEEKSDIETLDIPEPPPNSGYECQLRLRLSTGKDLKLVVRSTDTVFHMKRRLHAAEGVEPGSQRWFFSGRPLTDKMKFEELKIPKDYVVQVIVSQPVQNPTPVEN

Sequence of His-tagged DC-UbP (human) (Q8WUN7 whole entry, the tested form may be a part): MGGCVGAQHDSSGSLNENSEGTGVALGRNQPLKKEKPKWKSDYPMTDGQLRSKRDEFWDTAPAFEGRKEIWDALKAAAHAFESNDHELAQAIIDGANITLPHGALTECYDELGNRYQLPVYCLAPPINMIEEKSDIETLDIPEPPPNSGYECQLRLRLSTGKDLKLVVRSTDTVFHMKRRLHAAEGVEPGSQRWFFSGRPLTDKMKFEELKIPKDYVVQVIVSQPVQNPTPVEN

As for “USP5, recombinant, purified (from UniProt P45974 1-858) (enzyme)”, in test [1], the mean relative peak intensity of the UBD domain of DC-UbP at 1:1 molar ratio (free DC-UbP = 1) turned out to be 0.56 and the mean relative peak intensity of the UbL domain of DC-UbP at 1:1 molar ratio (free DC-UbP = 1) was found to be 0.27. For orientation: Kd means a measure of binding affinity in units of concentration. A high value points to weaker binding. On to “USP5_UBA12 (tandem UBA domains of USP5, residues 625-749) (from UniProt P45974 625-749) (domain or fragment)”, for which the Kd in test [2] is 400 µM.
